Laboratory results reported in patent publication US20090023900 (published 2009).

Columns and labels:
integrin alphaVbeta5 = molecular target: T1, integrin alphaVbeta5 (human, UniProt P06756); assay: ELISA
T1 chain 1: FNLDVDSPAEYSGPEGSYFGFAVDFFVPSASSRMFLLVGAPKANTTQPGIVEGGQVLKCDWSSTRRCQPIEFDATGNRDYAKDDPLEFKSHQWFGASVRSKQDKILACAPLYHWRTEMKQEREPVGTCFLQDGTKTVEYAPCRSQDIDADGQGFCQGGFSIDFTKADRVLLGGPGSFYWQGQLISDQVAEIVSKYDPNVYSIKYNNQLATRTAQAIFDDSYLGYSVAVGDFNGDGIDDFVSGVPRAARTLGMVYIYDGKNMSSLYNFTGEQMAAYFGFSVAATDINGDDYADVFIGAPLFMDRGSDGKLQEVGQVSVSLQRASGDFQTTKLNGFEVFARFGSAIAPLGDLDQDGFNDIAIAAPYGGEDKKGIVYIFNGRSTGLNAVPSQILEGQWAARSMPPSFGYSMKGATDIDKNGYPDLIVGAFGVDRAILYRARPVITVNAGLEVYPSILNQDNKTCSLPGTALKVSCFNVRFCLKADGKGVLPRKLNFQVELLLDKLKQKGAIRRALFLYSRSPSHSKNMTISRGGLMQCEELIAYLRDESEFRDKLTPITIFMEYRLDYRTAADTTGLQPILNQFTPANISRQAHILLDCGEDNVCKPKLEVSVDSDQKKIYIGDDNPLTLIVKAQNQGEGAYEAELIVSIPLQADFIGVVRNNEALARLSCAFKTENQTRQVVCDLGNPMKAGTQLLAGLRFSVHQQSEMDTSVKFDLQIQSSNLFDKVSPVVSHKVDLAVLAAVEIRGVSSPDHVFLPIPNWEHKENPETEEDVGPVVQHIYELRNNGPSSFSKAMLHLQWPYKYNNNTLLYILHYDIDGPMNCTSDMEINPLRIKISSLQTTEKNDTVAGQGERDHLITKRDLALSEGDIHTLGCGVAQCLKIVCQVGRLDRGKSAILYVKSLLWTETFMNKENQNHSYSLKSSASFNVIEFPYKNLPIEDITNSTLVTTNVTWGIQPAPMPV
T1 chain 2: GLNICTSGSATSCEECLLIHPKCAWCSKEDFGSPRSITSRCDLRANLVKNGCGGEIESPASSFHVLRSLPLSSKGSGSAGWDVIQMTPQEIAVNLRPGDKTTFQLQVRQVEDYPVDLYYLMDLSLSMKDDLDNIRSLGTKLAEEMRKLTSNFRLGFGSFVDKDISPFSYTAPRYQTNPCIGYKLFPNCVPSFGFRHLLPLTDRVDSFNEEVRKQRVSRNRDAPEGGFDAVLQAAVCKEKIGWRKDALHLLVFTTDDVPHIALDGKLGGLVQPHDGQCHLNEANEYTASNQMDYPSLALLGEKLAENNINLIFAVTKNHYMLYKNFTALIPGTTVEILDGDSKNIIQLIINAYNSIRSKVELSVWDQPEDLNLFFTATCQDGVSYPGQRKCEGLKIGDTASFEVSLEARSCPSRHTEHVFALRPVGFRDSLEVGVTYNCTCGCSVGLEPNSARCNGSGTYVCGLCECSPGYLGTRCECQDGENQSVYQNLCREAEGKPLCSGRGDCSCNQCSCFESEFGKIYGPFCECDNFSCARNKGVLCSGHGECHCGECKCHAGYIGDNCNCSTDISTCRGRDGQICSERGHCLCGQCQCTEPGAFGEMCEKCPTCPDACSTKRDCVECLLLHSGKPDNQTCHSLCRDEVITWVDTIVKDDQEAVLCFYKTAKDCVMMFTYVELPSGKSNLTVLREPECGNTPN

integrin alphaIIbbeta3 = integrin alphaIIbbeta3 (human, UniProt P08514); assay: ELISA

binding result (integrin alphaVbeta5): no binding
binding result (integrin alphaIIbbeta3): no binding
B1: Vitaxin (antibody, V domains shown)
VH: QVQLVESGGGVVQPGRSLRLSCAASGFTFSSYDMSWVRQAPGKGLEWVAKVSSGGGSTYYLDTVQGRFTISRDNSKNTLYLQMNSLRAEDTAVYYCARHNYGSFAYWGQGTTVTVSS
VL: EIVLTQSPATLSLSPGERATLSCQASQSISNHLHWYQQRPGQAPRLLIKYRSQSISGIPARFSGSGSGTDFTLTISSLEPEDFAVYYCQQSGSWPHTFGGGTKVEIK
